Results from paper PMC12999518 (Nature Structural & Molecular Biology, 2026).

T1: Sea3 (yeast (endogenous, TB50 background), UniProt Q03897 1-1148)
T1 sequence (looked up): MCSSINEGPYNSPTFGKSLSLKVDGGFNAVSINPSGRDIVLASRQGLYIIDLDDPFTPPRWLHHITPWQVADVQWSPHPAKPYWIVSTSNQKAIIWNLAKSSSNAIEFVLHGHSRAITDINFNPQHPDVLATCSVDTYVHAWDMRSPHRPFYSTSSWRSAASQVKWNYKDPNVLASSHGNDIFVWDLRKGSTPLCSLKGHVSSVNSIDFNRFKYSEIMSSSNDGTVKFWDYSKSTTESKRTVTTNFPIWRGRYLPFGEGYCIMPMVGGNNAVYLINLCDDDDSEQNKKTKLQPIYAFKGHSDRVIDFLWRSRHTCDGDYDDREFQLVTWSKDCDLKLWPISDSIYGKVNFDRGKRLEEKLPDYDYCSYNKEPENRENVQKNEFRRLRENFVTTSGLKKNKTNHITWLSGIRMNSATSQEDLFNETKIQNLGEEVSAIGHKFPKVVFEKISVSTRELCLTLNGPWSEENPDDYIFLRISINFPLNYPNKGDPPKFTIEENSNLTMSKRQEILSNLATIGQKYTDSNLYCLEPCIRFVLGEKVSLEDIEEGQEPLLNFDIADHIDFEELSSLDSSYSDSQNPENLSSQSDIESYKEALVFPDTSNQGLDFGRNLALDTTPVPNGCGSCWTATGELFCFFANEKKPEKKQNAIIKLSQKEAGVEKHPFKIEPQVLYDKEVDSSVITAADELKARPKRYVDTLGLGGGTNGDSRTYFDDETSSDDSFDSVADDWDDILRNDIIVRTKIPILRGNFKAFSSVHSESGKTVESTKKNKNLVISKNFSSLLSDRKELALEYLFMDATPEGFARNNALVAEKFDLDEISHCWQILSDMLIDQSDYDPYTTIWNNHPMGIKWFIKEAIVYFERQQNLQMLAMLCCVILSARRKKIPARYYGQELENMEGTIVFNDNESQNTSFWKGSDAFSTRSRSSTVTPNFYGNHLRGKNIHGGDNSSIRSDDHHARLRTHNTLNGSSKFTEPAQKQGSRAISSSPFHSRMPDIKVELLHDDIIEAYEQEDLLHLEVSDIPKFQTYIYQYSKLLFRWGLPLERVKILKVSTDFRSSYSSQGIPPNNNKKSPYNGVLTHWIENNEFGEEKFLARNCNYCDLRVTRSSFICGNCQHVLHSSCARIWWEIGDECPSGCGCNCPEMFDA

B1: Gtr2 (natural protein, yeast, UniProt P53290 1-341, looked up)
chain: MSLEATDSKAMVLLMGVRRCGKSSICKVVFHNMQPLDTLYLESTSNPSLEHFSTLIDLAVMELPGQLNYFEPSYDSERLFKSVGALVYVIDSQDEYINAITNLAMIIEYAYKVNPSINIEVLIHKVDGLSEDFKVDAQRDIMQRTGEELLELGLDGVQVSFYLTSIFDHSIYEAFSRIVQKLIPELSFLENMLDNLIQHSKIEKAFLFDVNSKIYVSTDSNPVDIQMYEVCSEFIDVTIDLFDLYKAPVLRNSQKSSDKDNVINPRNELQNVSQLANGVIIYLRQMIRGLALVAIIRPNGTDMESCLTVADYNIDIFKKGLEDIWANARASQAKNSIEDDV
B2: Gtr1 (natural protein, yeast, UniProt Q00582 1-310, looked up)
chain: MSSNNRKKLLLMGRSGSGKSSMRSIIFSNYSAFDTRRLGATIDVEHSHLRFLGNMTLNLWDCGGQDVFMENYFTKQKDHIFQMVQVLIHVFDVESTEVLKDIEIFAKALKQLRKYSPDAKIFVLLHKMDLVQLDKREELFQIMMKNLSETSSEFGFPNLIGFPTSIWDESLYKAWSQIVCSLIPNMSNHQSNLKKFKEIMNALEIILFERTTFLVICSSNGENSNENHDSSDNNNVLLDPKRFEKISNIMKNFKQSCTKLKSGFKTLILNNNIYVSELSSNMVCFIVLKDMNIPQELVLENIKKAKEFFQ
B3: Npr2 (natural protein, yeast (endogenous, TB50 background), UniProt P39923 1-615, looked up)
chain: MLSYFQGFVPIHTIFYSVFHPTEGSKIKYEFPPNNLKNHGINFNTFKNYIIPKPILCHKLITFKYGTYRIVCYPVTINSPIYARNFFSFNFVFVFPYDCETSPYEPAITRLGKMFKVLEEQNQLLSKSERDPVFFDLKVLENSTTTPSTAGPSSTPNPSSNTTPTHPTSEKDTKDMRSSRYSDLIKDLGLPQSAFSIQDLLMRIFQDLNNYSECLIPIDEGNAVDIKIFPLLRPPTTCVSLEDVPLSSVNLKKIIDVNWDPTMMSIVPYIDGLNSIAKISKLSNSDPGLVIECIRHLIYYKCVTLSDIFQFSNIYAPSSLIRNFLTDPLMASDCQSYVTFPEVSKISNLPLNKSLGSGDQDSPSFSVRRKSKSSSIPSNPDSRTTSFSSTSRVSQNSSLNSSFSSIYKDWRQSQTSCSSSNIHVINNRNRFLPTRSCLFDLYRSLSQGQTLKTWYESKYMILKENNIDIRRFITFGLEKRIIYRCYSFPVMINAGSREPKEMTPIITKDLVNNDKLLEKRNHNHLLSATGSRNTAQSGNLKPERPSKVSFEMQRVSSLATGKSTMPKLSDEEEGILEESIRNAETFDKICVLLSKPKLEVESYLNELGEFKVINS

What was measured:
Experiment in all cases: cryo-EM structure
Sea1 = Sea1 (yeast (endogenous, TB50 background), UniProt P47170 1-1584)
Sequence of Sea1 (P47170 whole entry): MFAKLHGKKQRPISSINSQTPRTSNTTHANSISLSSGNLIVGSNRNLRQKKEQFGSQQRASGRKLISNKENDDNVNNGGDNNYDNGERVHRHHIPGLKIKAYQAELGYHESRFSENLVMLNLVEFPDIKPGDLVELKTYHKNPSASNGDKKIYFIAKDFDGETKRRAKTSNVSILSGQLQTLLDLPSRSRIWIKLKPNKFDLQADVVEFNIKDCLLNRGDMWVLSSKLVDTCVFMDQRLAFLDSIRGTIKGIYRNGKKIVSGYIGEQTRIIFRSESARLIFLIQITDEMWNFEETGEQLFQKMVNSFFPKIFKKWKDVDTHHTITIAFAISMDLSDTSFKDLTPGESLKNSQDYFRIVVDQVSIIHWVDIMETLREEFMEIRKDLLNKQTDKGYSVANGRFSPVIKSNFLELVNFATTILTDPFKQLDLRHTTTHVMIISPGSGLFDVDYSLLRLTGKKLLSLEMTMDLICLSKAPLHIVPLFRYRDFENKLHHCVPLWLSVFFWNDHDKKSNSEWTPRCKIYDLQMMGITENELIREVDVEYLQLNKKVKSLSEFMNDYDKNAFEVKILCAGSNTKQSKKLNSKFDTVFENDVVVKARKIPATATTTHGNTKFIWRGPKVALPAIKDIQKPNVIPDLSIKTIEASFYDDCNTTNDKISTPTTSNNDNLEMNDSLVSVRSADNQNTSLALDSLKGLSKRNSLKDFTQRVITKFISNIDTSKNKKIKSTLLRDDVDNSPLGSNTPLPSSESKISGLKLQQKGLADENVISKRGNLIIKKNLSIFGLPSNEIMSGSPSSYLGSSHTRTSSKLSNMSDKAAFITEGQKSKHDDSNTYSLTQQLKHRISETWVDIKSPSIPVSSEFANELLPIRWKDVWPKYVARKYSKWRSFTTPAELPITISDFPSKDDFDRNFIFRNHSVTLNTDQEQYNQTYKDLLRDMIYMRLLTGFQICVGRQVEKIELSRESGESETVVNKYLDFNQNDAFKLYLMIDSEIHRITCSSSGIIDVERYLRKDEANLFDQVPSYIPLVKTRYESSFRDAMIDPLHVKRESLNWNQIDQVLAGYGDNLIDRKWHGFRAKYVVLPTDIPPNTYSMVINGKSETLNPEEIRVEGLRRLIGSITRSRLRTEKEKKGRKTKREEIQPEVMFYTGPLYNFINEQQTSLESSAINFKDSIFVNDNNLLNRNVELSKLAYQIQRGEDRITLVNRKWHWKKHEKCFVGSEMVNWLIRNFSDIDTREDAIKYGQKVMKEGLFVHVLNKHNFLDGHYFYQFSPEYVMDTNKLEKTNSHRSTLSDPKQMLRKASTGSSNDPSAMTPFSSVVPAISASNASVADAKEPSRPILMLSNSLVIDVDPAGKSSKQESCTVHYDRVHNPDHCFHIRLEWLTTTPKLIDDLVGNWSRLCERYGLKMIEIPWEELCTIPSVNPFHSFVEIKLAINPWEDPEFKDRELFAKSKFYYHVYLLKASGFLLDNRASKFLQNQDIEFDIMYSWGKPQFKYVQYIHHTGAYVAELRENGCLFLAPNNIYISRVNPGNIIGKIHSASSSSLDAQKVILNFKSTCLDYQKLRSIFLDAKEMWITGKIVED

Gtr2 = target: B1
Npr2 = target: B3
Sea3 = target: T1, Sea3

Binder: B1
- binding result (Sea1): binds

Binder: B2
- binding result (Gtr2): binds
- binding result (Npr2): binds

Binder: B3
- binding result (Sea3): binds
